Laboratory results published in patent US6565869 (ISTITUTO DI RICERCHE DI BIOLOGIA MOLECOLARE P ANGELETTI S P …, dated 2003).

T1: CNTF receptor-α (CNTFRα) (UniProt P26992 23-342, limits assumed)
T1 construct: also called CNTFRa; CNTF a-receptor
T1 sequence (looked up): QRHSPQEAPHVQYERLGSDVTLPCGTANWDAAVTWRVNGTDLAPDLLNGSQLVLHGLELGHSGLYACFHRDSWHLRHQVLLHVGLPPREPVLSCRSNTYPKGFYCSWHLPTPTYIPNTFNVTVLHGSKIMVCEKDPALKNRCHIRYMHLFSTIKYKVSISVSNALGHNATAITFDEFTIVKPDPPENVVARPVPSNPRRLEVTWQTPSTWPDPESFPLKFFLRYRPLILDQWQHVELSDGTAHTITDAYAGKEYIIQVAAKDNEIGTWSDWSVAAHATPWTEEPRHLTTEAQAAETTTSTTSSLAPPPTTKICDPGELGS


What follows are binders tested against T1, CNTF receptor-α (CNTFRα) (assay: solid phase binding assay on CNTFRα).
Experimental: The relative binding affinities to CNTF receptor-α (CNTFRα) of hCNTF and different hCNTF variants were determined by solid phase binding assay as previously described (10). […] These variants, like DH-CNTF, have increased utility for treatment of obesity and associated diseases, such as diabetes.

Binder | Relative Binding (hCNTF = 1)
hCNTF (human ciliary neurotrophic factor), wild type (ligand, also called human CNTF) MAFTEHSPLTPHRRDLCSRSIWLARKIRSDLTALTESYVKHQGLNKNINLDSADGMPVASTDQWSELTEAERLQENLQAYRTFHVLLARLLEDQQVHFTPTEGDFHQAIHTLLLQVAAFAYQIEELMILLEYKIPRNEADGMPINVGDGGLFEKKLWGLKVLQELSQWTVRSIHDLRFISSHQTGIPARGSHYIANNKKM | 1.1 relative (hCNTF = 1)
(Phe152Ala/Ser166Asp/Gln167His) hCNTF (ligand) MAFTEHSPLTPHRRDLCSRSIWLARKIRSDLTALTESYVKHQGLNKNINLDSADGMPVASTDQWSELTEAERLQENLQAYRTFHVLLARLLEDQQVHFTPTEGDFHQAIHTLLLQVAAFAYQIEELMILLEYKIPRNEADGMPINVGDGGLAEKKLWGLKVLQELDHWTVRSIHDLRFISSHQTGIPARGSHYIANNKKM | 32 relative (hCNTF = 1)
(Asp30Gln/Ser166Asp/Gln167His) hCNTF (ligand) MAFTEHSPLTPHRRDLCSRSIWLARKIRSQLTALTESYVKHQGLNKNINLDSADGMPVASTDQWSELTEAERLQENLQAYRTFHVLLARLLEDQQVHFTPTEGDFHQAIHTLLLQVAAFAYQIEELMILLEYKIPRNEADGMPINVGDGGLFEKKLWGLKVLQELDHWTVRSIHDLRFISSHQTGIPARGSHYIANNKKM | 30 relative (hCNTF = 1)
(Gln167Ala) hCNTF (ligand) MAFTEHSPLTPHRRDLCSRSIWLARKIRSDLTALTESYVKHQGLNKNINLDSADGMPVASTDQWSELTEAERLQENLQAYRTFHVLLARLLEDQQVHFTPTEGDFHQAIHTLLLQVAAFAYQIEELMILLEYKIPRNEADGMPINVGDGGLFEKKLWGLKVLQELSAWTVRSIHDLRFISSHQTGIPARGSHYIANNKKM | 9 relative (hCNTF = 1)
(Ser166Ala/Gln167Ala) hCNTF (ligand) MAFTEHSPLTPHRRDLCSRSIWLARKIRSDLTALTESYVKHQGLNKNINLDSADGMPVASTDQWSELTEAERLQENLQAYRTFHVLLARLLEDQQVHFTPTEGDFHQAIHTLLLQVAAFAYQIEELMILLEYKIPRNEADGMPINVGDGGLFEKKLWGLKVLQELAAWTVRSIHDLRFISSHQTGIPARGSHYIANNKKM | 8.1 relative (hCNTF = 1)
(Ser166Asp/Gln167Ala/Arg177Phe) hCNTF (ligand) MAFTEHSPLTPHRRDLCSRSIWLARKIRSDLTALTESYVKHQGLNKNINLDSADGMPVASTDQWSELTEAERLQENLQAYRTFHVLLARLLEDQQVHFTPTEGDFHQAIHTLLLQVAAFAYQIEELMILLEYKIPRNEADGMPINVGDGGLFEKKLWGLKVLQELDAWTVRSIHDLFFISSHQTGIPARGSHYIANNKKM | 13.1 relative (hCNTF = 1)
(Ser166Asn/Gln167Ala) hCNTF (ligand) MAFTEHSPLTPHRRDLCSRSIWLARKIRSDLTALTESYVKHQGLNKNINLDSADGMPVASTDQWSELTEAERLQENLQAYRTFHVLLARLLEDQQVHFTPTEGDFHQAIHTLLLQVAAFAYQIEELMILLEYKIPRNEADGMPINVGDGGLFEKKLWGLKVLQELNAWTVRSIHDLRFISSHQTGIPARGSHYIANNKKM | 12.4 relative (hCNTF = 1)
(Gln167Ala/Thr169Leu) hCNTF (ligand) MAFTEHSPLTPHRRDLCSRSIWLARKIRSDLTALTESYVKHQGLNKNINLDSADGMPVASTDQWSELTEAERLQENLQAYRTFHVLLARLLEDQQVHFTPTEGDFHQAIHTLLLQVAAFAYQIEELMILLEYKIPRNEADGMPINVGDGGLFEKKLWGLKVLQELSAWLVRSIHDLRFISSHQTGIPARGSHYIANNKKM | 9.6 relative (hCNTF = 1)
(Lys160Gln/Gln167Ala) hCNTF (ligand) MAFTEHSPLTPHRRDLCSRSIWLARKIRSDLTALTESYVKHQGLNKNINLDSADGMPVASTDQWSELTEAERLQENLQAYRTFHVLLARLLEDQQVHFTPTEGDFHQAIHTLLLQVAAFAYQIEELMILLEYKIPRNEADGMPINVGDGGLFEKKLWGLQVLQELSAWTVRSIHDLRFISSHQTGIPARGSHYIANNKKM | 11.7 relative (hCNTF = 1)
(Ser166Asp/Gln167Ala) hCNTF (ligand) MAFTEHSPLTPHRRDLCSRSIWLARKIRSDLTALTESYVKHQGLNKNINLDSADGMPVASTDQWSELTEAERLQENLQAYRTFHVLLARLLEDQQVHFTPTEGDFHQAIHTLLLQVAAFAYQIEELMILLEYKIPRNEADGMPINVGDGGLFEKKLWGLKVLQELDAWTVRSIHDLRFISSHQTGIPARGSHYIANNKKM | 13.5 relative (hCNTF = 1)
(Lys155Ala/Ser166Asp/Gln167His) hCNTF (ligand) MAFTEHSPLTPHRRDLCSRSIWLARKIRSDLTALTESYVKHQGLNKNINLDSADGMPVASTDQWSELTEAERLQENLQAYRTFHVLLARLLEDQQVHFTPTEGDFHQAIHTLLLQVAAFAYQIEELMILLEYKIPRNEADGMPINVGDGGLFEKALWGLKVLQELDHWTVRSIHDLRFISSHQTGIPARGSHYIANNKKM | 51 relative (hCNTF = 1)
(Lys160Gln/Gln167Thr) hCNTF (ligand) MAFTEHSPLTPHRRDLCSRSIWLARKIRSDLTALTESYVKHQGLNKNINLDSADGMPVASTDQWSELTEAERLQENLQAYRTFHVLLARLLEDQQVHFTPTEGDFHQAIHTLLLQVAAFAYQIEELMILLEYKIPRNEADGMPINVGDGGLFEKKLWGLQVLQELSTWTVRSIHDLRFISSHQTGIPARGSHYIANNKKM | 3.1 relative (hCNTF = 1)
(Gln63Arg) hCNTF (ligand) MAFTEHSPLTPHRRDLCSRSIWLARKIRSDLTALTESYVKHQGLNKNINLDSADGMPVASTDRWSELTEAERLQENLQAYRTFHVLLARLLEDQQVHFTPTEGDFHQAIHTLLLQVAAFAYQIEELMILLEYKIPRNEADGMPINVGDGGLFEKKLWGLKVLQELSQWTVRSIHDLRFISSHQTGIPARGSHYIANNKKM | 2 relative (hCNTF = 1)
(Gln167Ala/His174Ala) hCNTF (ligand) MAFTEHSPLTPHRRDLCSRSIWLARKIRSDLTALTESYVKHQGLNKNINLDSADGMPVASTDQWSELTEAERLQENLQAYRTFHVLLARLLEDQQVHFTPTEGDFHQAIHTLLLQVAAFAYQIEELMILLEYKIPRNEADGMPINVGDGGLFEKKLWGLKVLQELSAWTVRSIADLRFISSHQTGIPARGSHYIANNKKM | 3.6 relative (hCNTF = 1)
(Gln63Arg/Ser166Asp/Gln167His) hCNTF (ligand) MAFTEHSPLTPHRRDLCSRSIWLARKIRSDLTALTESYVKHQGLNKNINLDSADGMPVASTDRWSELTEAERLQENLQAYRTFHVLLARLLEDQQVHFTPTEGDFHQAIHTLLLQVAAFAYQIEELMILLEYKIPRNEADGMPINVGDGGLFEKKLWGLKVLQELDHWTVRSIHDLRFISSHQTGIPARGSHYIANNKKM | 66 relative (hCNTF = 1)
(Gln163Ser/Gln167His) hCNTF (ligand) MAFTEHSPLTPHRRDLCSRSIWLARKIRSDLTALTESYVKHQGLNKNINLDSADGMPVASTDQWSELTEAERLQENLQAYRTFHVLLARLLEDQQVHFTPTEGDFHQAIHTLLLQVAAFAYQIEELMILLEYKIPRNEADGMPINVGDGGLFEKKLWGLKVLSELSHWTVRSIHDLRFISSHQTGIPARGSHYIANNKKM | 4.1 relative (hCNTF = 1)
(Gln167Ala/Thr169Ser) hCNTF (ligand) MAFTEHSPLTPHRRDLCSRSIWLARKIRSDLTALTESYVKHQGLNKNINLDSADGMPVASTDQWSELTEAERLQENLQAYRTFHVLLARLLEDQQVHFTPTEGDFHQAIHTLLLQVAAFAYQIEELMILLEYKIPRNEADGMPINVGDGGLFEKKLWGLKVLQELSAWSVRSIHDLRFISSHQTGIPARGSHYIANNKKM | 6.9 relative (hCNTF = 1)
(Gln167Ala/Thr169Leu/Phe178Ile) hCNTF (ligand) MAFTEHSPLTPHRRDLCSRSIWLARKIRSDLTALTESYVKHQGLNKNINLDSADGMPVASTDQWSELTEAERLQENLQAYRTFHVLLARLLEDQQVHFTPTEGDFHQAIHTLLLQVAAFAYQIEELMILLEYKIPRNEADGMPINVGDGGLFEKKLWGLKVLQELSAWLVRSIHDLRIISSHQTGIPARGSHYIANNKKM | 8.4 relative (hCNTF = 1)
(Gln167Tyr) hCNTF (ligand) MAFTEHSPLTPHRRDLCSRSIWLARKIRSDLTALTESYVKHQGLNKNINLDSADGMPVASTDQWSELTEAERLQENLQAYRTFHVLLARLLEDQQVHFTPTEGDFHQAIHTLLLQVAAFAYQIEELMILLEYKIPRNEADGMPINVGDGGLFEKKLWGLKVLQELSYWTVRSIHDLRFISSHQTGIPARGSHYIANNKKM | 9.6 relative (hCNTF = 1)
(Gln167Thr) hCNTF (ligand) MAFTEHSPLTPHRRDLCSRSIWLARKIRSDLTALTESYVKHQGLNKNINLDSADGMPVASTDQWSELTEAERLQENLQAYRTFHVLLARLLEDQQVHFTPTEGDFHQAIHTLLLQVAAFAYQIEELMILLEYKIPRNEADGMPINVGDGGLFEKKLWGLKVLQELSTWTVRSIHDLRFISSHQTGIPARGSHYIANNKKM | 11.8 relative (hCNTF = 1)
(Gln167Ala/Arg177Leu) hCNTF (ligand) MAFTEHSPLTPHRRDLCSRSIWLARKIRSDLTALTESYVKHQGLNKNINLDSADGMPVASTDQWSELTEAERLQENLQAYRTFHVLLARLLEDQQVHFTPTEGDFHQAIHTLLLQVAAFAYQIEELMILLEYKIPRNEADGMPINVGDGGLFEKKLWGLKVLQELSAWTVRSIHDLLFISSHQTGIPARGSHYIANNKKM | 11.7 relative (hCNTF = 1)
